Experimental data from the DeepSol protein solubility set.

test: soluble on expression in E. coli; label from the status in PepcDB or PDB records

Sequence	soluble on expression in E. coli
MAHHHHHHMSVPDLTAEELAYYASLRLEDPDEAALATFLADLEQVHEDHPSDTGAAPSSTVASASGKRGALLTSSRVPACERLDSSDVEGVPPQRRVASVDRQQPSAYAATGLAIRQISAKLFPAPRSATTDSGTRYGVTQVLEKDNLVGGVAGIADAALQTRCVELPARQLTSIAPVQCFLNATHVYLQHNALADLEGVELLSQLQVLVVHHNQLTSLAPLQQLECLSYLDVSHNNVSSSVDVLLRDELPCPSLKSLNLSNNPCWSRCGEAVSDGDGGERHRAYVQQICTACPLLERLDDVVVDDGEEVMQHSDNSTESDVKDVAERRSASAAGAAPSQAGGITVRRVHNSVEAARAASSRACVHDIHTRSSLAPPGSLVSGEAELSARPPRSAQVNKARLLEEEQARLVHQLFLRRAVGTAPGSAKAVDTVSTSPLHSNRSSTGSGHFHPGDAATEAPTEQKANQPADSTGDVSALYSTRGDILHLYHSLQFTQEVSQARLQRDVAAHWDDVSRVLQTVQALQQDRRRRIQQRLQEQTSAYTDSLIMLEKESFTKDLDRYRNSDGSRRAAPAGIHAAASAPAAPPAVDTPNGITAVAHTSAAVDGNCASKASSTSTHPPEKPKGKTKKGPSVPKPPPRR	not soluble
QGHMAWSAQQYLKFEDERTRPARDLLAQVPLERVLNGYDLGCGPGNSTELLTDRYGVNVITGIDSDDDMLEKAADRLPNTNFGKADLATWKPAQKADLLYANAVFQWVPDHLAVLSQLMDQLESGGVLAVQMPDNLQEPTHIAMHETADGGPWKDAFSGGGLRRKPLPPPSDYFNALSPKSSRVDVWHTVYNHPMKDADSIVEWVKGTGLRPYLAAAGEENREAFLADYTRRIAAAYPPMADGRLLLRFPRLFVVAVKK	soluble
SMTYIPPGESLRDLIEQSQSSGSGSGLPLLVQRTIAKQIQMVKQIGKGRYGEVWMGKWRGEKVAVKVFFTTEEASWFRETEIYQTVLMRHENILGFIAADIKGTGSWTQLYLITDYHENGSLYDYLKSTTLDAKSMLKLAYSSVSGLCHLHTEIFSTQGKPAIAHRDLKSKNILVKKNGTCCIADLGLAVKFISDTNEVDIPPNTRVGTKRYMPPEVLDESLNRNHFQSYIMADMYSFGLILWEVARRCVSGGIVEEYQLPYHDLVPSDPSYEDMREIVCIKKLRPSFPNRWSSDECLRQMGKLMTECWAHNPASRLTALRVKKTLAKMSESQDIKL	soluble
MIRAVFFDFVGTLLSVEGEAKTHLKIMEEVLGDYPLNPKTLLDEYEKLTREAFSNYAGKPYRPIRDIEEEVMRKLAEKYGFKYPENFWEIHLRMHQRYGELYPEVVEVLKSLKGKYHVGMITDSDTEYLMAHLDALGIKDLFDSITTSEEAGFFKPHPRIFELALKKAGVKGEEAVYVGDNPVKDCGGSKNLGMTSILLDRKGEKREFWDKCDFIVSDLREVIKIVDELNGQ	soluble
MNVSVNIKNVTKEYRIYRTNKERMKDALIPKHKNKTFFALDDISLKAYEGDVIGLVGINGSGKSTLSNIIGGSLSPTVGKVDRNGEVSVIAISAGLSGQLTGIENIEFKMLCMGFKRKEIKAMTPKIIEFSELGEFIYQPVKKYSSGMRAKLGFSINITVNPDILVIDEALSVGDQTFAQKCLDKIYEFKEQNKTIFFVSHNLGQVRQFCTKIAWIEGGKLKDYGELDDVLPKYEAFLNDFKKKSKAEQKEFRNKLDESRFVIK	not soluble
MGHHHHHHSHMPKAKKVDAVGPAADADITKPELVVPSEDPKTEEIESVEEKTVEKSTEKPVDKKGGRPVRGKKSPGSDEEAMDGEYEADEEEAALEPRRSTRGKRSYDQETGGRSVRKVVKKAKEVNKKPERAPSARGRGQKPAIGNDSTTEDGEEKKSGKNASDTDSDEEAKVVKRPTSGRMSGAPPSARMLALKKKNHDDSE	not soluble
MAKLDKKVYERELELLQIELVKLQEWVKQEKLKLVVIFEGRDAAGKGGVIKTITEKLNPRVCRVAALPAPTEKEKTQWYFQRYVAHLPAGGEIVLFDRSWYNRAGVEKVMGFCSDEEYQEFLRSCPEFERMLQRSGIILLKYWFSVSDEEQERRFIERINTPLKRWKFSPMDLESRQRWAAYSRAKDEMFAYTDTKHCPWWVVPSDDKKRARLNCISHLLSSVEYQEIEHAPITLPEINKQGYVRPPIEDQTFVPQRY	not soluble
MAHHHHHHMSDVIKLCEAEELKELFIKEYNEYLKLIKNVELYYEKLEINWKKFHLFYQQNKKDPFEYHKEKNKHNKIKKVQNKKKNINIHSDYQSIEKYFKMIQKKEIQNNCHYYKKFDYDKDSFILFTLKKNVNNAVELYININIEKLNKIKNYLLNYINDFCKRQINQIINLIILCEIKLNNLYISQKNHFTNNNIKIKHIHLIKNIIHFNQQFIFEVTKNLIPFFTNFNIFSSPDYFNYQFNYFNNCVEIMGE	not soluble
